Assay results: paper PMC10876215, “Nucleosome conformation dictates the histone code” (eLife, 2024)

Key:
[1] = target: H3K4me3K9acK14acK18ac histone peptide (dCypher, biotinylated); test: AlphaScreen or HTRF; dCypher on the Alpha platform; biotinylated histone peptide (100 nM final) on streptavidin donor beads, 6His-tagged Query titrated and held on Ni-NTA acceptor beads; 50 mM Tris pH 7.5, 50 mM NaCl, 0.01% Tween-20, 0.01% BSA, 0.0004% Poly-L Lysine, 1 mM TCEP; room temperature; relative EC50 (EC50^rel)
[2] = target: H4K5acK8acK12acK16ac histone peptide (dCypher, biotinylated); test: AlphaScreen or HTRF; dCypher on the Alpha platform; biotinylated histone peptide (100 nM final) on streptavidin donor beads, GST-tagged Query titrated and held on glutathione acceptor beads; 50 mM Tris pH 7.5, 50 mM NaCl, 0.01% Tween-20, 0.01% BSA, 0.0004% Poly-L Lysine, 1 mM TCEP; room temperature; relative EC50 (EC50^rel), not an equilibrium Kd

| fold weaker than for the H3K4me3 peptide [1] | EC50 [2] | Substance |
| --- | --- | --- |
| 2 fold | – | BPTF 6His-PHD (domain or fragment) |
| – | 0.7 nM | GST-BRD4-BD1 (domain or fragment) |
